The test addresses Twin-Strep-tagged human exocyst Subcomplex-1 (Exoc1:Exoc2:Exoc3:Exoc4) (human) (UniProt Q9NV70). The test can be described thus: SPR.
Sequence of UniProt Q9NV70 (Q9NV70 whole entry, chain 1 of 4): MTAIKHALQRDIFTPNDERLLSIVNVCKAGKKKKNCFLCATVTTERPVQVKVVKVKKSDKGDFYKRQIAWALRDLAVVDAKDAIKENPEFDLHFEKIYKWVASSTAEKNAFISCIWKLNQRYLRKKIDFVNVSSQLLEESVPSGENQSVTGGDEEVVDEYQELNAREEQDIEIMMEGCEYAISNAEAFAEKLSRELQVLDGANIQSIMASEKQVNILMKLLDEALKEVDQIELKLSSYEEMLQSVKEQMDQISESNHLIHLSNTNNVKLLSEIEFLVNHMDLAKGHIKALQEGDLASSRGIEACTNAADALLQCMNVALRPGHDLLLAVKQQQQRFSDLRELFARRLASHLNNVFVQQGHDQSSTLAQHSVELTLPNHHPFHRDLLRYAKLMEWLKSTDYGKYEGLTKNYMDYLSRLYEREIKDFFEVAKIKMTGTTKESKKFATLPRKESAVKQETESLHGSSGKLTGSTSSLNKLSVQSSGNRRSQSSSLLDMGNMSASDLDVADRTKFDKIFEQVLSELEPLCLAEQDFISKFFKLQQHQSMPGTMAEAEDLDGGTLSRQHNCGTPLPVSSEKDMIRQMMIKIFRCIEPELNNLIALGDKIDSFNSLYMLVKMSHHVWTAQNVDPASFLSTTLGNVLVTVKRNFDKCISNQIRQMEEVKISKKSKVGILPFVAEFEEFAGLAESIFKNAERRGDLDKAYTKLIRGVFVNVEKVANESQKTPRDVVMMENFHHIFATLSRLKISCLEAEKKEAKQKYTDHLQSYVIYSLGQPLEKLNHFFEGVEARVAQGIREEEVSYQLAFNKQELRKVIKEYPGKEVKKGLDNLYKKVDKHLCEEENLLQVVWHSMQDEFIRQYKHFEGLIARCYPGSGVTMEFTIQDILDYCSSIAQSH
Sequence of UniProt Q9NV70 (Q96KP1 whole entry, chain 2 of 4, further chain): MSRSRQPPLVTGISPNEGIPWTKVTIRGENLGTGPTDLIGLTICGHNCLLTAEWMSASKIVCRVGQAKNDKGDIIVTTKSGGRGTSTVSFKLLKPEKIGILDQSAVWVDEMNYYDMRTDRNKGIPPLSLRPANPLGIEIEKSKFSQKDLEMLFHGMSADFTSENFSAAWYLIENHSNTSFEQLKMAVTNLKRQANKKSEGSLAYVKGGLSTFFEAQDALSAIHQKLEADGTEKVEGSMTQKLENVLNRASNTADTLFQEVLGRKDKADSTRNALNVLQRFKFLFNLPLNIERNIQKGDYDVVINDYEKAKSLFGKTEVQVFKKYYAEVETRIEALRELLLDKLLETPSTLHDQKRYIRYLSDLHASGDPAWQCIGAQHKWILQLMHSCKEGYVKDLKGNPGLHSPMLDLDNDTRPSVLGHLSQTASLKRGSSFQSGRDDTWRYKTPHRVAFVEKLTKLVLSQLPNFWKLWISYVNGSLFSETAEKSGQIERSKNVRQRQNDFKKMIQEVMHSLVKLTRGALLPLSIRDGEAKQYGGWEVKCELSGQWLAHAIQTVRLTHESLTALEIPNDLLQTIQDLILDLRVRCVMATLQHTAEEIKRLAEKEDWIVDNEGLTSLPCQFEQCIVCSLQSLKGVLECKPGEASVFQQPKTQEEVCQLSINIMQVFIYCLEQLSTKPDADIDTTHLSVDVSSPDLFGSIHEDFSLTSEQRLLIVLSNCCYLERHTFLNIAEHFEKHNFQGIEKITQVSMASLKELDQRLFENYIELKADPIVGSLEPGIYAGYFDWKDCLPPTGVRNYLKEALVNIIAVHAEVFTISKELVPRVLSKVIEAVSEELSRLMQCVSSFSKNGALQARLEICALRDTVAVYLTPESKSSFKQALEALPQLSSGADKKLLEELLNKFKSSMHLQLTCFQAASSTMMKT
Sequence of UniProt Q9NV70 (O60645 whole entry, chain 3 of 4, further chain): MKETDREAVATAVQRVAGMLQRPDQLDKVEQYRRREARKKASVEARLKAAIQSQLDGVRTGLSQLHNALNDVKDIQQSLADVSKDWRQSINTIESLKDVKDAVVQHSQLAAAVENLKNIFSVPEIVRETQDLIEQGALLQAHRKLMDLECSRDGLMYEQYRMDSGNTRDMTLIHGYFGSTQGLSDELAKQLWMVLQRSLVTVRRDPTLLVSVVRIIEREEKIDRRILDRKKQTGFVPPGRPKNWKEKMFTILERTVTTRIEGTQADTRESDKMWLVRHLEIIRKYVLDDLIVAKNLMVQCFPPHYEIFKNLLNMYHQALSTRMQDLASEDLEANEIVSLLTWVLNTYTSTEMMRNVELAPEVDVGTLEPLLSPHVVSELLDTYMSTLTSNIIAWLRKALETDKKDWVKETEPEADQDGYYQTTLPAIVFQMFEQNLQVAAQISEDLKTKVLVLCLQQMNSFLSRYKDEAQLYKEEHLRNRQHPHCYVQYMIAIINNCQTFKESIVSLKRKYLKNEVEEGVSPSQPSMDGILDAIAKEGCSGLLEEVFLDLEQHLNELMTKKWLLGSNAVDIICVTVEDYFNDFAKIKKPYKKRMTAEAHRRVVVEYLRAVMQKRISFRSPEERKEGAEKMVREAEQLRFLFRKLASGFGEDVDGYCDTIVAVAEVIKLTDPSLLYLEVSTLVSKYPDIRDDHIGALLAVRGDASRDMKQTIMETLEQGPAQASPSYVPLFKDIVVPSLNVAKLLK
Sequence of UniProt Q9NV70 (Q96A65 whole entry, chain 4 of 4, further chain): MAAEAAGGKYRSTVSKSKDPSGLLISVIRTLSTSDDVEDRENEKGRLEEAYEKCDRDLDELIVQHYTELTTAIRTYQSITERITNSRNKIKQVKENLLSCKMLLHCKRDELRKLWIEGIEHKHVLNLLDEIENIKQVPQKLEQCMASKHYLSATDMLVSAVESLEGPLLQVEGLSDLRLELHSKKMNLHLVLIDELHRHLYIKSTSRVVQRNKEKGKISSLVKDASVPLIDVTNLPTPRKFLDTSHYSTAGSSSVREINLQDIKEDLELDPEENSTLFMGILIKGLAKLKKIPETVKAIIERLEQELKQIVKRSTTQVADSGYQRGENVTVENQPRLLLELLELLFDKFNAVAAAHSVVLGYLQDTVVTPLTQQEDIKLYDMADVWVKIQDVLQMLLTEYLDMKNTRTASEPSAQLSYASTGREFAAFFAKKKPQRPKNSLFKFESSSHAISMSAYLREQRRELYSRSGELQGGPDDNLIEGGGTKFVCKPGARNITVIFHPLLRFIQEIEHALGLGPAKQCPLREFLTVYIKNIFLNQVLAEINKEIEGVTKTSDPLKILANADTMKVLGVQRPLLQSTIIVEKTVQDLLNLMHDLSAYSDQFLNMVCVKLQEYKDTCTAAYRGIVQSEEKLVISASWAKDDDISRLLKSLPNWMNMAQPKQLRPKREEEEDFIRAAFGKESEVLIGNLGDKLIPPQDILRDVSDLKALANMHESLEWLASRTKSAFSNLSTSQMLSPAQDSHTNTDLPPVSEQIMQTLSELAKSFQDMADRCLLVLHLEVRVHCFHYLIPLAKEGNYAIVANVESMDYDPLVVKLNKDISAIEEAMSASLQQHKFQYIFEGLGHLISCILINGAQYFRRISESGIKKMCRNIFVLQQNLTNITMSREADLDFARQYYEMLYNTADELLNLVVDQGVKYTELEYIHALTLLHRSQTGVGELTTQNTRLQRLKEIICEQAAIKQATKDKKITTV

Turning to “human exocyst Subcomplex-2 (Exoc5:Exoc6:Exoc7:Exoc8) (from UniProt O00471 1-708; Q8TAG9 1-804; Q9UPT5 1-735; Q8IYI6 1-725)”, the dissociation constant Kd was found to be 78 nM. This counts as double-digit nanomolar.

The values above are taken from paper doi:10.1101/2024.10.07.617058.
